The results in this text go back to PMC6476560 (PLoS ONE, 2019).

B3: wild-type MtbMpa (mycobacterial proteasomal ATPase), hexamer (enzyme)
chain: MGESERSEAFGIPRDSPLSSGDAAELEQLRREAAVLREQLENAVGSHAPTRSARDIHQLEARIDSLAARNSKLMETLKEARQQLLALREEVDRLGQPPSGYGVLLATHDDDTVDVFTSGRKMRLTCSPNIDAASLKKGQTVRLNEALTVVEAGTFEAVGEISTLREILADGHRALVVGHADEERVVWLADPLIAEDLPDGLPEALNDDTRPRKLRPGDSLLVDTKAGYAFERIPKAEVEDLVLEEVPDVSYADIGGLSRQIEQIRDAVELPFLHKELYREYSLRPPKGVLLYGPPGCGKTLIAKAVANSLAKKMAEVRGDDAHEAKSYFLNIKGPELLNKFVGETERHIRLIFQRAREKASEGTPVIVFFDEMDSIFRTRGTGVSSDVETTVVPQLLSEIDGVEGLENVIVIGASNREDMIDPAILRPGRLDVKIKIERPDAEAAQDIYSKYLTEFLPVHADDLAEFDGDRSACIKAMIEKVVDRMYAEIDDNRFLEVTYANGDKEVMYFKDFNSGAMIQNVVDRAKKNAIKSVLETGQPGLRIQHLLDSIVDEFAENEDLPNTTNPDDWARISGKKGERIVYIRTLVTGKSSSASRAIDTESNLGQYL

Common to all, as to assay: MST
Holding throughout (settings): both partners purified

Assay [1] addresses B3.
For assay [2], the target named is T1, fluorescently labelled Dop (deamidase of Pup; depupylase) (UniProt P9WNU9 1-505).
T1 sequence: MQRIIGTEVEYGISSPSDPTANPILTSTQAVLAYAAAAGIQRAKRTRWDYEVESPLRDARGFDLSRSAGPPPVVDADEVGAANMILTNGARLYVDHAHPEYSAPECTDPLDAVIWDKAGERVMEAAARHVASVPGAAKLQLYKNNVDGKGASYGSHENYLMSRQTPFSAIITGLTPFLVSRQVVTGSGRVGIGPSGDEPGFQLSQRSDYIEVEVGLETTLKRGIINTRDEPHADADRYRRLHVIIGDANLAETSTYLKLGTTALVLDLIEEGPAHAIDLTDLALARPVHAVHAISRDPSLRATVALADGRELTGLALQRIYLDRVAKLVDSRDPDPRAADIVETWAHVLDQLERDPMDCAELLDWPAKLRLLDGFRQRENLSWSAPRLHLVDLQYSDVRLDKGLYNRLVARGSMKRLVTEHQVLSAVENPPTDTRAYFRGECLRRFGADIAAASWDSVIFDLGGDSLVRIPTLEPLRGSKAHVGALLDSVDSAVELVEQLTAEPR

Assay [3] addresses Pup-PckA-Fl (fluorescein-labelled pupylated phosphoenolpyruvate carboxykinase PckA) (Mycobacterium tuberculosis, UniProt P9WIH3;P9WHN5, PupE (C-terminal glutamine as glutamate)).

B1: Pup-Icl1-Fl (fluorescein-labelled pupylated isocitrate lyase 1 Icl1) (complex)
chain 1: MSVVGTPKSAEQIQQEWDTNPRWKDVTRTYSAEDVVALQGSVVEEHTLARRGAEVLWEQLHDLEWVNALGALTGNMAVQQVRAGLKAIYLSGWQVAGDANLSGHTYPDQSLYPANSVPQVVRRINNALQRADQIAKIEGDTSVENWLAPIVADGEAGFGGALNVYELQKALIAAGVAGSHWEDQLASEKKCGHLGGKVLIPTQQHIRTLTSARLAADVADVPTVVIARTDAEAATLITSDVDERDQPFITGERTREGFYRTKNGIEPCIARAKAYAPFADLIWMETGTPDLEAARQFSEAVKAEYPDQMLAYNCSPSFNWKKHLDDATIAKFQKELAAMGFKFQFITLAGFHALNYSMFDLAYGYAQNQMSAYVELQEREFAAEERGYTATKHQREVGAGYFDRIATTVDPNSSTTALTGSTEEGQFH
chain 2: MAQEQTKRGGGGGDDDDIAGSTAAGQERREKLTEETDDLLDEIDDVLEENAEDFVRAYVQKGGE
notes: copies: 4 + 2
Turning to B1, in assay [1], the Kd (as a rule, the concentration at which binding is half-saturated) turned out to be 160 ± 30 nM.

B2: Pup-Icl1 (pupylated isocitrate lyase 1 Icl1), unlabelled (complex)
chain 1: MSVVGTPKSAEQIQQEWDTNPRWKDVTRTYSAEDVVALQGSVVEEHTLARRGAEVLWEQLHDLEWVNALGALTGNMAVQQVRAGLKAIYLSGWQVAGDANLSGHTYPDQSLYPANSVPQVVRRINNALQRADQIAKIEGDTSVENWLAPIVADGEAGFGGALNVYELQKALIAAGVAGSHWEDQLASEKKCGHLGGKVLIPTQQHIRTLTSARLAADVADVPTVVIARTDAEAATLITSDVDERDQPFITGERTREGFYRTKNGIEPCIARAKAYAPFADLIWMETGTPDLEAARQFSEAVKAEYPDQMLAYNCSPSFNWKKHLDDATIAKFQKELAAMGFKFQFITLAGFHALNYSMFDLAYGYAQNQMSAYVELQEREFAAEERGYTATKHQREVGAGYFDRIATTVDPNSSTTALTGSTEEGQFH
chain 2: MAQEQTKRGGGGGDDDDIAGSTAAGQERREKLTEETDDLLDEIDDVLEENAEDFVRAYVQKGGE
notes: copies: 4 + 2
On to B2, for which the Kd in assay [2] came out at 129 ± 41 nM. B3 yielded a Kd in assay [3] of 210 ± 100 nM.
